Here are results for seven molecules from patent publication US20080311575A1, “Modulation of Muci-Dependent Anti-Estrogen Resistance” (priority 2005, published 2008).

In one assay the test system is breast cancer cells. Briefly: Induction of apoptosis in breast cancer cells. In kind it is cell-based, human. The conditions noted are these: both cell types (MCF-7, ZR-75-1); data not shown.
The test system of another assay is breast cancer. The conditions noted are these: patients with high ER and PgR expression levels; cited from earlier work.
A further assay deals with ERα. Briefly: Immunoblot of ERα levels in MCF-7 and ZR-75-1 cells. It is filed as cell-based, human. The conditions noted are these: MG132 5 mM for 24 h. The procedure: FIGS. 5A-D. MUC1 stabilizes ERα. FIG. 5A. Lysates from the indicated MCF-7 (left) and ZR-75-1 (right) cells were immunoblotted with anti-ERa, anti-MUC1-C and anti-β-actin. WT: wild-type cells. FIGS. 5B and C. The indicated MCF-7 (left) and ZR-75-1 (right) cells were treated with 5 mM MG132 for 24 h. Lysates were subjected to immunoblotting with the indicated antibodies FIG. 5B. […] Lysates were immunoprecipitated with anti-ERα and the precipitates were analyzed by SDS-PAGE and autoradiography. A higher amount of MCF-7/MUC1siRNA cell lysate was used for immunoprecipitation to increase the ERα signals. Lysates not subjected to immunoprecipitation were immunoblotted with anti-β-actin. Intensity of the signals as determined by densitometric scanning is presented as the percentage of ERα remaining over time relative to control at 0 h.
Coimmunoprecipitation and immunoblotting.
Background: A western blot detects proteins with antibodies after separation by electrophoresis.

The test system of assay [1] is ERα-mediated transcription (ERE-tk-Luc). Description: ERE-tk-Luc reporter assay in MCF-7/CsiRNA and MCF-7/MUC1siRNA-A cells. It is filed as cell-based, human. The conditions noted are these: MCF-7/CsiRNA versus MCF-7/MUC1siRNA-A cells, 100 nM E2 for 24 h.
For assay [2], the target named is T1, 35S-labeled full-length ERα(1-595) (Homo sapiens (Human), UniProt P03372 1-595, 35S-labeled in in vitro transcription/translation (TNT) reactions).
T1 construct: In vitro translated from pcDNA3.1-ERα; also called 35S-labeled ERα
T1 sequence: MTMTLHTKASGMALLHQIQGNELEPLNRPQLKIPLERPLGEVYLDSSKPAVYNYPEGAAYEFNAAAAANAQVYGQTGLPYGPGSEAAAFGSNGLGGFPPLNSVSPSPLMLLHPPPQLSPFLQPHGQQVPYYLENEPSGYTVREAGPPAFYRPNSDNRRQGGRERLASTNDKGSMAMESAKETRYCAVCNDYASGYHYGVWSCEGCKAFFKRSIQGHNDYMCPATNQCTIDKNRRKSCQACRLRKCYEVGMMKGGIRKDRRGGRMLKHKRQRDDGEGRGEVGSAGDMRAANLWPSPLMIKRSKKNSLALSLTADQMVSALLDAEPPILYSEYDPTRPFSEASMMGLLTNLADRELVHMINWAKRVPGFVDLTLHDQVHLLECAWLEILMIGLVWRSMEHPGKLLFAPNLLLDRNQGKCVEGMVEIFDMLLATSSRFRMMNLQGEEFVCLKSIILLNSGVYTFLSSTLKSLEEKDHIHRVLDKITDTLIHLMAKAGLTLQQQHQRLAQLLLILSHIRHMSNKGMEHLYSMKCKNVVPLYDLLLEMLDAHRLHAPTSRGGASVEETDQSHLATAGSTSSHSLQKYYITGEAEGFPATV
Briefly: GST pull-down on glutathione beads, 35S-labeled full-length ERα, phosphoimaging. On the procedure:
To localize the region within MUC1-CD that interacts with ERα, ³⁵S-labeled full length ERα was incubated with deletion mutants of MUC1-CD.

The target of a further assay is T2, 35S-labeled ERα(1-185) (Homo sapiens (Human), UniProt P03372 1-185, 35S-labeled in in vitro transcription/translation (TNT) reactions).
T2 construct: Deletion mutant that contains the AF1 domain
T2 sequence: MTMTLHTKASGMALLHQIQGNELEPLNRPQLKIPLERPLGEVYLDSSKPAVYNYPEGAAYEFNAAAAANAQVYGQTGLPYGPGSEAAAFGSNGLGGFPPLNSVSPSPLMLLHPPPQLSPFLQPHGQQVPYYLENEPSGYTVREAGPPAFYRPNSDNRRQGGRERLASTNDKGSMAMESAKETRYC
Briefly: GST pull-down on glutathione beads, 35S-labeled ERα deletion mutant, phosphoimaging.

Another assay has as its target T3, 35S-labeled ERα(282-595) (Homo sapiens (Human), UniProt P03372 282-595, 35S-labeled in in vitro transcription/translation (TNT) reactions).
T3 sequence: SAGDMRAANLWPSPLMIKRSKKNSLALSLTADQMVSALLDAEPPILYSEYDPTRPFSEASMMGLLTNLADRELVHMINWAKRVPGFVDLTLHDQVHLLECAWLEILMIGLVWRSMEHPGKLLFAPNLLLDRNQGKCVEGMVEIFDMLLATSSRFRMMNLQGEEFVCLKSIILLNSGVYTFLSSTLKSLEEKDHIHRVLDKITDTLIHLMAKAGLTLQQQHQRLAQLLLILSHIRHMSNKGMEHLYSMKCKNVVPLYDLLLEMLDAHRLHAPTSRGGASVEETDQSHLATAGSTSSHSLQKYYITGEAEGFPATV
The description is as above.

The target of assay [3] is T4, 35S-labeled ERα(Δ186-281) (Homo sapiens (Human), UniProt P03372 1-595, 35S-labeled in in vitro transcription/translation (TNT) reactions).
T4 construct: Internal deletion of residues 186-281, devoid of the DBD
T4 sequence: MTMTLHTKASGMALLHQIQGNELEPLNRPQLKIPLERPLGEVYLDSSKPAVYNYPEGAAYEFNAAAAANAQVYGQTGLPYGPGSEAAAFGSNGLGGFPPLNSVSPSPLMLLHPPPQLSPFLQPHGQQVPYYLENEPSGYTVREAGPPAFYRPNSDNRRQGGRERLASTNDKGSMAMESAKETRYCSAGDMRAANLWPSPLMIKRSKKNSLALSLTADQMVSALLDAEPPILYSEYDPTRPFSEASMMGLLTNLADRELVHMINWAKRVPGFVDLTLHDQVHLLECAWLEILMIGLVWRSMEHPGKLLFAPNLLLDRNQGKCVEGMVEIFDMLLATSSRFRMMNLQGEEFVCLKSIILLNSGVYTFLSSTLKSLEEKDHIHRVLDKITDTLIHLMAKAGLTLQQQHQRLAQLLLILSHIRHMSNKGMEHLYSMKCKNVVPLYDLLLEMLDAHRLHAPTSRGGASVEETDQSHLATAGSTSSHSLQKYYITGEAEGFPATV
The assay is described as above.

For assay [4], the target named is T5, estrogen receptor α (ERα), expressed in cells (human, UniProt P03372 1-595).
T5 sequence: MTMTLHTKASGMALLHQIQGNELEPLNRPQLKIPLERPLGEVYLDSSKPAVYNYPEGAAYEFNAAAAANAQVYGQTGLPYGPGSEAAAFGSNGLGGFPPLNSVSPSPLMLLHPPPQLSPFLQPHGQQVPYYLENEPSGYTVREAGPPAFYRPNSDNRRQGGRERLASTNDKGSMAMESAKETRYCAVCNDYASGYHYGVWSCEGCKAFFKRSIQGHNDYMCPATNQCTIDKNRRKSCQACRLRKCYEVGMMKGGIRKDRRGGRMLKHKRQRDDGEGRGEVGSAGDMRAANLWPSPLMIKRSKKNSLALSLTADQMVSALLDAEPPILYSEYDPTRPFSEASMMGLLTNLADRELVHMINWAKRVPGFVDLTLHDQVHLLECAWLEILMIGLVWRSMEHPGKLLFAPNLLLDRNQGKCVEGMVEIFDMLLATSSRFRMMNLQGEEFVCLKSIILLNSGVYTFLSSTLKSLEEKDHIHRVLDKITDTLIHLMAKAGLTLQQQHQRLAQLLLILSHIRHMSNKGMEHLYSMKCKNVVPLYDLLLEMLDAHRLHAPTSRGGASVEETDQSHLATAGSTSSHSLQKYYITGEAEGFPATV
Description: cell-based or functional assay.

Assay [5] concerns the target T6, proliferating cell nuclear antigen (PCNA) (human, UniProt P12004 1-261).
T6 construct: Precipitated from lysates with anti-PCNA as a control
Briefly: coimmunoprecipitation: anti-PCNA precipitates of cell lysates, immunoblot with anti-MUC1-C.

Residues, ends and D or L forms follow the SMILES beside them. *: point of attachment. Cbz = O=C(OCc1ccccc1)*

T6 sequence (P12004 whole entry): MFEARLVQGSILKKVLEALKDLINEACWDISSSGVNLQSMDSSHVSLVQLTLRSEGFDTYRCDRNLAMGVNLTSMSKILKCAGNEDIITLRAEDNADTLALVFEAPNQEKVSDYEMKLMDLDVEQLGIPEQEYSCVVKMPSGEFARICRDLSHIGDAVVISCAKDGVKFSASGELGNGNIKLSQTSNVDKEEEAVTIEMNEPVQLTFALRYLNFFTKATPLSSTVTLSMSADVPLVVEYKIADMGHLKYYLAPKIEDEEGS

On to `CC/C(=C(\c1ccccc1)c1ccc(OCCN(C)C)cc1)c1ccccc1` [TAM, tamoxifen], for which the induction of apoptosis with breast cancer cells is listed as at most 10%. The overall response rate in the assay with breast cancer is reported as at most 70%.

On to `CC(C)C[C@@H](C=O)NC(=O)[C@H](CC(C)C)NC(=O)[C@H](CC(C)C)NC(=O)OCc1ccccc1` [MG132] (Cbz-Leu-Leu-Leu-aldehyde), for which, in the assay with ERα, the “effect on ERα expression (immunoblot)” value is recorded as “increases in ERα expression”.

Turning to `C[C@]12CC[C@@H]3c4ccc(O)cc4CC[C@H]3[C@@H]1CC[C@@H]2O` [E2, 17β-estradiol], the “MUC1-dependent activation of ERE-tk-Luc” value in assay [1] was about 5 fold.

As to `C[C@]12CC[C@@H]3c4ccc(O)cc4C[C@@H](CCCCCCCCC[S+]([O-])CCCC(F)(F)C(F)(F)F)[C@H]3[C@@H]1CC[C@@H]2O` (some centres unmarked) [ICI, ICI 182,780], the “effect on ERα expression (immunoblot)” value with ERα is “down-regulation of ERα”.

B1: GST-MUC1-CD with deletion of amino acids 9 to 46 (other, not shown: a dimerising Fc or GST; large carriers; small tags and cut ends)
chain: CQCRRKNYEKVSAGNGGSSLSYTNPAVAATSANL
notes: also called MUC1-CD deletion mutant (amino acids 9 to 46 deleted)
For B1, in [2], the binding result was “no binding”.

B2: GST-MUC1-CD(1-72) (other, not shown: a dimerising Fc or GST)
chain: CQCRRKNYGQLDIFPARDTYHPMSEYPTYHTHGRYVPPSSTDRSPYEKVSAGNGGSSLSYTNPAVAATSANL
notes: also called full-length MUC1-CD
As to B2, the binding result (with 35S-labeled ERα(1-185); with 35S-labeled ERα(282-595); in [3]) was “no binding” throughout.

B3: MUC1 C-terminal subunit (MUC1-C) (other)
chain: SVVVQLTLAFREGTINVHDVETQFNQYKTEAASRYNLTISDVSVSDVPFPFSAQSGAGVPGWGIALLVLVCVLVALAIVYLIALAVCQCRRKNYGQLDIFPARDTYHPMSEYPTYHTHGRYVPPSSTDRSPYEKVSAGNGGSSLSYTNPAVAATSANL
notes: Endogenous ~20-25 kDa MUC1-C in lysates of human breast cancer cells
Turning to B3, the “MUC1-dependent activation of ERE-tk-Luc (luciferase reporter, MCF-7/CsiRNA against MCF-7/MUC1siRNA-A cells stimulated with E2)” value in [4] is about 5 fold. Further, the binding result in assay [5] is listed as “no binding”.
